From patent publication US9297028B2, “Fermentive production of four carbon alcohols” (Butamax Advanced Biofuels LLC, priority 2005, dated 2016) come the findings set out here.

What all share (type): biochemical
The nature of series [1]: Crotonase activity assayed as described by Stern. The protocol:
Crotonase activity was assayed as described by Stern (Methods Enzymol. 1, 559-566, (1954)). In one typical assay, the specific activity of the crotonase protein in the induced culture was determined to be 444 μmol mg^−1 min^−1 compared to 47 μmol mg^−1 min^−1 in the uninduced culture.
(§1) For enzyme activity analysis, a single colony of each strain was streaked onto a fresh plate containing SD minimal drop out medium and incubated at 30° C. for 2 days. The cells on this plate were used to inoculate 20 mL of SD drop out medium and in a 125 mL shake flask and grown overnight at 30° C., with shaking at 250 rpm. The optical density (OD600) of the overnight culture was measured, and the culture was diluted to an OD600=0.1 in 250 mL of the same medium in a 1.0 L shake flask, and grown at 30° C. with shaking at 250 rpm to an OD600 of between 0.8 to 1.0. The cells were then harvested by centrifugation at 2000×g for 10 min, and resuspended in 20 mL of 50 mM Tris-HCl buffer, pH 8.5. Enzyme assays were performed as described above.

Series [2] in a line: Acetoacetyl-CoA thiolase activity in cell free extracts (decrease in absorbance at 303 nm). The settings on record: yeast strain BY4741 (pNY6), ERG10 gene, in words. The protocol:
Acetoacetyl-CoA thiolase activity in the cell free extracts was measured as degradation of a Mg^2+-acetoacetyl-CoA complex by monitoring the decrease in absorbance at 303 nm. Standard assay conditions were 100 mM Tris-HCl pH 8.0, 1 mM DTT (dithiothreitol) and 10 mM MgCl2. The cocktail was equilibrated for 5 min at 37° C.; then the cell-free extract was added. The reaction was initiated with the addition of 0.05 mM acetoacetyl-CoA plus 0.2 mM CoA. Protein concentration was measured by either the Bradford method or by the Bicinchoninic Kit (Sigma, catalog no. BCA-1). Bovine serum albumin (Bio-Rad, Hercules, Calif.) was used as the standard in both cases. In one typical assay, the specific activity of the ThlA protein in the induced culture was determined to be 16.0 μmol mg^−1 min^−1 compared to 0.27 μmol mg^−1 min^−1 in the uninduced culture.
For enzyme activity analysis, a single colony of each strain was streaked onto a fresh plate containing SD minimal drop out medium and incubated at 30° C. for 2 days. […] The optical density (OD600) of the overnight culture was measured, and the culture was diluted to an OD600=0.1 in 250 mL of the same medium in a 1.0 L shake flask, and grown at 30° C. with shaking at 250 rpm to an OD600 of between 0.8 to 1.0. […]

Series [3] is described as follows: Acylating aldehyde dehydrogenase activity (formation of NADH, absorbance at 340 nm). The settings on record: yeast BY4741 transformants containing pNY8. The protocol: Acylating aldehyde dehydrogenase activity was determined by monitoring the formation of NADH, as measured by the increase in absorbance at 340 nm, as described by Husemann et al. (Appl. Microbiol. Biotechnol. 31:435-444 (1989)). In one typical assay, the specific activity of the Aid protein in the induced culture was determined to be 0.106 μmol mg^−1 min^−1 compared to 0.01 μmol mg^−1 min^−1 in the uninduced culture
as §1

Series [4] in a line: Trans-2-enoyl-CoA reductase (butyryl-CoA dehydrogenase) activity assayed as described by Hoffmeister et al. As to the method: Trans-2-enoyl-CoA reductase activity was assayed as described by Hoffmeister et al. (J. Biol. Chem. 280, 4329-4338 (2005)). In one typical assay, the specific activity of the TER CAC0462 protein in the induced culture was determined to be 0.694 μmol mg^−1 min^−1 compared to 0.0128 μmol mg^−1 min^−1 in the uninduced culture.
Trans-2-enoyl-CoA reductase activity was assayed as described by Hoffmeister et al., J. Biol. Chem. 280:4329 (2005). In a typical assay, the specific activity of the EgTER(opt) protein in the induced BL21 (DE3)/pET23+::EgTER(opt) culture was determined to be 1.9 μmol mg^−1 min^−1 compared to 0.547 μmol mg^−1 min^−1 in the uninduced culture.
as §1

B1: crotonase: crotonase encoded by crt from C. acetobutylicum ATCC 824, SEQ ID NO:8 (protein, listed as Clostridium acetobutylicum)
chain: MELNNVILEKEGKVAVVTINRPKALNALNSDTLKEMDYVIGEIENDSEVLAVILTGAGEKSFVAGADISEMKEMNTIEGRKFGILGNKVFRRLELLEKPVIAAVNGFALGGGCEIAMSCDIRIASSNARFGQPEVGLGITPGFGGTQRLSRLVGMGMAKQLIFTAQNIKADEALRIGLVNKVVEPSELMNTAKEIANKIVSNAPVAVKLSKQAINRGMQCDIDTALAFESEAFGECFSTEDQKDAMTAFIEKRKIEGFKNR
B1: the Crt activity in series [1] (yeast strain BY4741 (pNY11: pRS426-GPM1-crt-GPM1t)) came to 85 U/mg. The Crt enzyme activity in series [1] (yeast strain DPD5200 (BY4743/pNY103), standard conditions) amounted to 23.0 U/mg.

B2: ERG10: product of the Saccharomyces cerevisiae ERG10 gene, a functional ortholog of the thlA gene (protein, UniProt P41338 2-398, looked up)
Acetyl-CoA acetyltransferase: SQNVYIVSTARTPIGSFQGSLSSKTAVELGAVALKGALAKVPELDASKDFDEIIFGNVLSANLGQAPARQVALAAGLSNHIVASTVNKVCASAMKAIILGAQSIKCGNADVVVAGGCESMTNAPYYMPAARAGAKFGQTVLVDGVERDGLNDAYDGLAMGVHAEKCARDWDITREQQDNFAIESYQKSQKSQKEGKFDNEIVPVTIKGFRGKPDTQVTKDEEPARLHVEKLRSARTVFQKENGTVTAANASPINDGAAAVILVSEKVLKEKNLKPLAIIKGWGEAAHQPADFTWAPSLAVPKALKHAGIEDINSVDYFEFNEAFSVVGLVNTKILKLDPSKVNVYGGAVALGHPLGCSGARVVVTLLSILQQEGGKIGVAAICNGGGGASSIVIEKI
B2: the thiolase activity result in series [2] is reported as “no thiolase activity”.

B3: Ald: butyraldehyde dehydrogenase encoded by ald from C. beijerinckii ATCC 35702, SEQ ID NO:12; in yeast from codon optimized aldy, SEQ ID NO:189 (protein, listed as Clostridium beijerinckii)
chain: MNKDTLIPTTKDLKVKTNGENINLKNYKDNSSCFGVFENVENAISSAVHAQKILSLHYTKEQREKIITEIRKAALQNKEVLATMILEETHMGRYEDKILKHELVAKYTPGTEDLTTTAWSGDNGLTVVEMSPYGVIGAITPSTNPTETVICNSIGMIAAGNAVVFNGHPCAKKCVAFAVEMINKAIISCGGPENLVTTIKNPTMESLDAIIKHPSIKLLCGTGGPGMVKTLLNSGKKAIGAGAGNPPVIVDDTADIEKAGRSIIEGCSFDNNLPCIAEKEVFVFENVADDLISNMLKNNAVIINEDQVSKLIDLVLQKNNETQEYFINKKWVGKDAKLFLDEIDVESPSNVKCIICEVNANHPFVMTELMMPILPIVRVKDIDEAIKYAKIAEQNRKHSAYIYSKNIDNLNRFEREIDTTIFVKNAKSFAGVGYEAEGFTTFTIAGSTGEGITSARNFTRQRRCVLAG
Turning to B3, in series [3], the “Ald specific activity towards butyryl-CoA” value is “approximately 0.07 U/mg”.

B4: Ter: butyl-CoA dehydrogenase (ter) encoded by the codon optimized tery gene, SEQ ID NO:187 (protein)
chain: MLVKAKFVKGFIRDVHPYGCRREVLNQIDYCKKAIGFRGPKKVLIVGASSGFGLATRISVAFGGPEAHTIGVSYETGATDRRIGTAGWYNNIFFKEFAKKKGLVAKNFIEDAFSNETKDKVIKYIKDEFGKIDLFVYSLAAPRRKDYKTGNVYTSRIKTILGDFEGPTIDVERDEITLKKVSSASIEEIEETRKVMGGEDWQEWCEELLYEDCFSDKATTIAYSYIGSPRTYKIYREGTIGIAKKDLEDKAKLINEKLNRVIGGRAFVSVNKALVTKASAYIPTFPLYAAILYKVMKEKNIHENCIMQIERMFSEKIYSNEKIQFDDKGRLRMDDLELRKDVQDEVDRIWSNITPENFKELSDYKGYKKEFMNLNGFDLDGVDYSKDLDIELLRKLEP
modifications: Modified Ter protein
Turning to B4, the Ter activity in series [4] (yeast BY4741 transformant of pNY9) amounted to 0.26 U/mg; in series [4] (yeast BY4741 transformed with pNY13, SD-His medium) it was 0.19 U/mg.

B5: EgTER(opt): butyryl-CoA dehydrogenase (TER) from Euglena gracilis, codon optimized gene lacking the normal mitochondrial presequence (protein, UniProt Q5EU90 69-539, looked up)
Trans-2-enoyl-CoA reductase: VPQMAEGFSGEATSAWAAAGPQWAAPLVAAASSALALWWWAARRSVRRPLAALAELPTAVTHLAPPMAMFTTTAKVIQPKIRGFICTTTHPIGCEKRVQEEIAYARAHPPTSPGPKRVLVIGCSTGYGLSTRITAAFGYQAATLGVFLAGPPTKGRPAAAGWYNTVAFEKAALEAGLYARSLNGDAFDSTTKARTVEAIKRDLGTVDLVVYSIAAPKRTDPATGVLHKACLKPIGATYTNRTVNTDKAEVTDVSIEPASPEEIADTVKVMGGEDWELWIQALSEAGVLAEGAKTVAYSYIGPEMTWPVYWSGTIGEAKKDVEKAAKRITQQYGCPAYPVVAKALVTQASSAIPVVPLYICLLYRVMKEKGTHEGCIEQMVRLLTTKLYPENGAPIVDEAGRVRVDDWEMAEDVQQAVKDLWSQVSTANLKDISDFAGYQTEFLRLFGFGIDGVDYDQPVDVEADLPSAAQQ
Regarding B5, the “specific activity (trans-2-enoyl-CoA reductase)” value in series [4] (induced BL21 (DE3)/pET23+::EgTER(opt) culture) stood at 1.9 µmol/mg/min. For the same molecule, the butyryl-CoA dehydrogenase activity result in series [4] (pTrc99a-EgTER(opt) compared with CaTER constructs, in words) is “Higher”.
